# From doi:10.1101/2020.09.11.292599 (bioRxiv, 2020)
# Where two headings read alike, the source gives them in different places.
# T1: His6-tagged 2,3-bisphosphoglycerate-independent phosphoglycerate mutase (PGAM, Slr1945) (Synechocystis sp. PCC 6803, UniProt P74507 1-532)
# T1 sequence (looked up): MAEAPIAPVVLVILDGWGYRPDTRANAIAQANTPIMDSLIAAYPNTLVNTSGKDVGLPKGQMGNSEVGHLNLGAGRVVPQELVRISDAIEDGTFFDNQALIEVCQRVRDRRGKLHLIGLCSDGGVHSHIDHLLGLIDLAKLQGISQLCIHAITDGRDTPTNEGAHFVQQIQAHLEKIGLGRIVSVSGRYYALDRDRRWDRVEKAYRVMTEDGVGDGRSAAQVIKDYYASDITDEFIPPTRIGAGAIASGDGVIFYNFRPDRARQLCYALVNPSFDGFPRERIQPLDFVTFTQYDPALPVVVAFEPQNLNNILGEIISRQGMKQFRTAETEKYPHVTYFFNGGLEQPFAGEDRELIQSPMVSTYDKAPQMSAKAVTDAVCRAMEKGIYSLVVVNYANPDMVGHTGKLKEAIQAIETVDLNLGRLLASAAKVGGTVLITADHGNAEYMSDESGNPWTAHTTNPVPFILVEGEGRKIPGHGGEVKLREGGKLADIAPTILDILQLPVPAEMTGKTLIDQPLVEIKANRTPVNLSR
# B1: recombinant PII, tag not stated for this experiment (natural protein, UniProt Q55247 1-112, looked up)
# chain: MKKVEAIIRPFKLDEVKIALVNAGIVGMTVSEVRGFGRQKGQTERYRGSEYTVEFLQKLKIEIVVDEGQVDMVVDKLVSAARTGEIGDGKIFISPVDSVVRIRTGEKDTEAI
# Assays:
# SEC-MALS = target: the molecule itself; test: SEC-MALS
# [1] = target: T1, His6-tagged …; test: BLI
# [2] = target: T2, C-terminally His8-tagged PII (UniProt Q55247 1-112); test: BLI
# [3] = target: T2, C-terminally His8-tagged PII; test: BLI; remark: listed apart in the source
# [4] = target: T1, His6-tagged …; test: BLI; remark: listed apart in the source
# [5] = target: B1; test: SEC-MALS
# [6] = target: T2, C-terminally His8-tagged PII; test: SPR
binder,measurement,setting,value
B1,stoichiometry N,SEC-MALS,3
"Strep-tagged PirC (Sll0944), 112 amino acid version starting at Met 53 (natural protein, Synechocystis sp. PCC 6803, UniProt P77971 53-164, looked up) MSQILDPIPNNQPSALFCCYVNATNQIQVARITNVPNWYFERVVFPGQRLVFEAVPSAQLEIHTGMMASSIISDTIPCEQLSIDPDGLAAGGFISPEKEHESEDMTSQSLVA",Kd,[1],1700 nM
same,Kd,[2],14.1 ± 0.7 nM
same,Kd,[3],37.3 ± 2.5 nM
same,Kd,[4],459 nM
"recombinant PirC (Sll0944), 112 amino acid version, tag not stated for this experiment (natural protein, Synechocystis sp. PCC 6803, UniProt P77971 53-164, looked up) MSQILDPIPNNQPSALFCCYVNATNQIQVARITNVPNWYFERVVFPGQRLVFEAVPSAQLEIHTGMMASSIISDTIPCEQLSIDPDGLAAGGFISPEKEHESEDMTSQSLVA",stoichiometry N,[5],1 PirC monomer per PII trimer
same,stoichiometry N,SEC-MALS,2
same,stoichiometry N,[6],~1 PirC monomer per PII trimer
